Measured values from the Human Domainome abundance scans (Beltran et al. 2025).
± gives the uncertainty stated by the source.

B1: Glucocorticoid receptor, residues 419 to 494; numbered along this chain, P04150 (parent)
chain: KLCLVCSDEASGCHYGVLTCGSCKVFFKRAVEGQHNYLCAGRNDCIIDKIRRKNCPACRYRKCLQAGMNLEARKTK

Variants of: B1
Test: abundance fitness (aPCA) (normalised: wild type 0, dead -1); higher = more abundant; growth selection in yeast, the domain comes from the species named
Details: Homo sapiens

Point of comparison: K53H, abundance fitness -0.038 ± 0.079. Against it:
- M68G — lower, -0.574 ± 0.055
- M68P — lower, -0.928 ± 0.14
- M68N — lower, -0.62 ± 0.45
- M68H — lower, -0.551 ± 0.15
- R59L — within error, -0.017 ± 0.035
- R59I — lower, -0.694 ± 0.18
- R59S — lower, -0.81 ± 0.1
- R59M — within error, -0.171 ± 0.054
- G41Q — within error, -0.055 ± 0.048
- G41D — within error, -0.049 ± 0.05
- G41N — within error, 0.032 ± 0.075
- R29N — within error, -0.007 ± 0.083
- R29E — within error, 0.033 ± 0.05
- R29H — within error, -0.071 ± 0.075
- R29L — within error, -0.017 ± 0.034
- R29S — within error, -0.056 ± 0.039
- R29C — within error, -0.077 ± 0.07
- R29W — within error, -0.095 ± 0.046
- R29D — within error, 0.02 ± 0.072
- E32H — within error, -0.058 ± 0.073
- E32N — within error, -0.059 ± 0.059
- R73E — within error, -0.015 ± 0.042
- R73Q — within error, -0.061 ± 0.058
- R73F — within error, -0.059 ± 0.059
- C6K — lower, -1.01 ± 0.22
- C6L — lower, -0.992 ± 0.12
- A30N — lower, -0.283 ± 0.098
- A30Y — within error, -0.102 ± 0.1
- A30R — lower, -0.457 ± 0.045
- A30H — lower, -0.292 ± 0.09
- H35P — within error, 0.003 ± 0.046
- H35L — within error, -0.025 ± 0.034
- H35C — within error, -0.128 ± 0.065
- H35Y — within error, -0.08 ± 0.09
- K49C — within error, 0.045 ± 0.054
- K49Y — within error, -0.077 ± 0.093
- K49W — within error, -0.129 ± 0.038
- K49E — within error, -0.097 ± 0.039
- C39W — lower, -0.992 ± 0.12
- C39L — lower, -0.923 ± 0.1
- K28L — within error, -0.022 ± 0.036
- K28M — within error, -0.002 ± 0.049
- C58K — lower, -1.06 ± 0.37
- C58H — lower, -0.701 ± 0.18
- C58R — lower, -1.04 ± 0.12
- C58W — lower, -1.08 ± 0.22
- C55Q — lower, -0.838 ± 0.11
- C55M — lower, -1.16 ± 0.2
- C55P — lower, -0.757 ± 0.14
- C55I — lower, -0.801 ± 0.32
- C55G — lower, -0.814 ± 0.061
- C55Y — lower, -0.66 ± 0.16
- C55K — lower, -0.877 ± 0.21
- I50Q — within error, 0.046 ± 0.049
- I50D — within error, -0.032 ± 0.073
- G33Y — within error, 0.035 ± 0.065
- G33L — within error, -0.093 ± 0.035
- G33Q — within error, -0.017 ± 0.048
- G33D — within error, 0.05 ± 0.066
- G33A — within error, -0.063 ± 0.037
- G33K — within error, 0.034 ± 0.06
- C63S — lower, -0.42 ± 0.05
- C63M — within error, -0.075 ± 0.049
- C63H — lower, -0.813 ± 0.25
- C63F — lower, -0.322 ± 0.11
- C63A — lower, -0.28 ± 0.039
- C63D — lower, -0.915 ± 0.24
- C63L — lower, -0.741 ± 0.068
- H14V — lower, -0.367 ± 0.042
- H14E — within error, -0.102 ± 0.041
- H14Q — within error, -0.077 ± 0.048
- H14Y — within error, -0.068 ± 0.075
- H14D — within error, -0.016 ± 0.057
- A57V — lower, -0.656 ± 0.059
- A57L — lower, -0.582 ± 0.048
- Y37I — within error, -0.08 ± 0.093
- Y37R — lower, -0.211 ± 0.044
- Y37C — lower, -0.299 ± 0.12
- Y37N — within error, -0.026 ± 0.066
- Y37H — within error, -0.117 ± 0.088
- V31A — within error, -0.031 ± 0.039
- T75A — within error, 0.029 ± 0.044
- T75D — within error, 0.023 ± 0.069
- T75N — within error, 0.014 ± 0.074
- T75I — within error, -0.044 ± 0.072
- C3S — lower, -0.728 ± 0.089
- L18S — within error, 0.038 ± 0.05
- L18E — within error, -0.045 ± 0.052
- L18N — within error, -0.1 ± 0.081
- C20Y — lower, -0.782 ± 0.23
- C20I — lower, -1.11 ± 0.49
- C20P — lower, -0.594 ± 0.12
- C20N — lower, -0.75 ± 0.26
- K53W — within error, -0.075 ± 0.039
- K53E — within error, 0.058 ± 0.044
- K53D — within error, 0.083 ± 0.088
- K53P — within error, -0.027 ± 0.046
- K53L — within error, -0.017 ± 0.034
- S11F — within error, -0.127 ± 0.088
- S11N — within error, 0.018 ± 0.07
- K76E — higher, 0.105 ± 0.059
- K76G — within error, 0.018 ± 0.052
- K76W — within error, -0.137 ± 0.083
- K76N — within error, 0.045 ± 0.095
- K76A — within error, 0.028 ± 0.051
- K62L — within error, -0.048 ± 0.034
- K62T — within error, -0.047 ± 0.042
- K62R — within error, -0.05 ± 0.031
- K62V — within error, -0.119 ± 0.034
- N54G — within error, -0.104 ± 0.036
- N54W — within error, -0.064 ± 0.04
- N54C — within error, -0.136 ± 0.062
- N69S — within error, 0.039 ± 0.044
- N69L — within error, -0.11 ± 0.036
- N69V — within error, -0.049 ± 0.036
- N69F — within error, -0.023 ± 0.062
- Y60W — within error, -0.036 ± 0.041
- Y60K — within error, -0.011 ± 0.054
- Y60A — lower, -0.425 ± 0.052
- A10F — lower, -0.362 ± 0.075
- A10E — lower, -0.287 ± 0.053
- A10P — within error, 0.004 ± 0.049
- A10N — lower, -0.274 ± 0.07
- L38F — within error, 0.018 ± 0.08
- R52L — within error, -0.048 ± 0.036
- R52C — within error, 0.051 ± 0.15
- V25W — within error, -0.039 ± 0.062
- V25F — within error, -0.005 ± 0.064
- V25T — within error, -0.019 ± 0.062
- I46Q — within error, 0.064 ± 0.049
- I46F — within error, 0.087 ± 0.068
- I46N — within error, -0.002 ± 0.074
- G16P — lower, -0.302 ± 0.051
- G16E — lower, -0.251 ± 0.05
- G16N — within error, 0 ± 0.085
- L70N — within error, -0.011 ± 0.076
- L70T — within error, -0.03 ± 0.045
- L70M — within error, 0.052 ± 0.054
- L70Q — within error, -0.02 ± 0.053
- L70A — within error, -0.058 ± 0.036
- F26T — lower, -1.06 ± 0.18
- F26K — lower, -0.929 ± 0.14
- F26G — lower, -1 ± 0.11
- F26N — lower, -0.714 ± 0.28
- L2V — within error, -0.02 ± 0.031
- L2P — lower, -0.39 ± 0.068
- L2E — within error, 0.049 ± 0.037
- L2N — within error, 0.092 ± 0.14
- L2D — within error, -0.045 ± 0.066
- L2H — within error, -0.002 ± 0.091
- C13S — within error, -0.037 ± 0.037
- C13H — higher, 0.112 ± 0.061
- C13I — higher, 0.112 ± 0.064
- C13V — within error, 0.015 ± 0.035
- C13M — within error, -0.027 ± 0.038
- G12T — within error, -0.069 ± 0.048
- G12V — lower, -0.166 ± 0.035
- G12D — within error, -0.003 ± 0.058
- R51N — within error, -0.031 ± 0.13
- V5L — lower, -0.611 ± 0.064
- V5E — lower, -0.96 ± 0.18
- D44H — within error, -0.11 ± 0.12
- D44R — within error, -0.088 ± 0.037
- Y15V — lower, -0.208 ± 0.038
- Y15M — within error, -0.009 ± 0.045
- Y15N — within error, 0.004 ± 0.067
